This is an account of results in patent US20240327505A1 (published 2024).

The labels stand for the following.
B1: AB-009747 (antibody, V domains shown)
VH: QVQLVESGGGVVQPGGSLRLSCAASGFTFSNYGMHWVRQAPGKGLEWVAFIRYDGSNEYYADSVKGRFTISRDNSKNTLYLHMNSLRPEDTAVYYCAKQGLLSNYYYGMDVWGQGTTVTVSS
VL: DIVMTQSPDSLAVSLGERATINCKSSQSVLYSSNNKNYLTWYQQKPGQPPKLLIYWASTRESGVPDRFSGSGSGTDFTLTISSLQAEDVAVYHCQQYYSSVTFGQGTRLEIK
B2: AB-009661 (antibody, V domains shown)
VH: QVQLVESGGGVVQPGRSLRLSCAASGFTFSSYGMHWVRQAPGKGLEWVAVISYDGSNKYYADSVKGRFTISRDNSKNTLYLQMNSLRAEDTAVYYCAKDYGDYGGMDVWGQGTTVTVSS
VL: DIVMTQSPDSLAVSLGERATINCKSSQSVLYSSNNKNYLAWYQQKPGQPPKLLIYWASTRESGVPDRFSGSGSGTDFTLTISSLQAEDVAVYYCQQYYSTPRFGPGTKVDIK
B3: AB-009281 (antibody, V domains shown)
VH: EVQLVETGGGLIQPGGSLRLSCAASGFTVSSNYMSWVRQAPGKGLEWVSVIYSGGSTYYADSVKGRFTISRDNSKNTLYLQMNSLRAEDTAVYYCARDLYYYGMDVWGQGTTVTVSS
VL: DIQLTQSPSFLSASVGDRVTITCRASQGISSYLAWYQQKPGKAPKLLIYAASTLQSGVPSRFSGSGSGTEFTLTISSLQPEDFATYYCQQLNSYPTFGQGTKVEIK
B4: AB-009271 (antibody, V domains shown)
VH: B3 VH with T7S, T28I, L99Y, Y100G, Y101D, Y102F, G103Y, M104F, V106Y, T112L
VL: EIVMTQSPATLSVSPGERATLSCRASQSVSSNLAWYQQKPGQAPRLLIYGASTRATGIPARFSGSGSGTEFTLTISSLQSEDFAVYYCQQYYNWPRTFGQGTKVEIK
B5: AB-009613 (antibody, V domains shown)
VH: B3 VH with T7S, L99Y, Y100G, Y101D, Y102F, G103Y, M104F, V106Y, T112L
VL: not shown
B6: AB-009620 (antibody, V domains shown)
VH: QITLKESGPTLVKPTQTLTLTCTFSGFSLSTSGVGVGWIRQPPGKALEWLALIYWDDDKRYSPSLKSRLTITKDTSKNQVVLTMTNMDPVDTATYYCAHHEVATVFDYWGQGTLVTVSS
VL: QSALTQPASVSGSPGQSITISCTGTSSDVGAYNYVSWYQQHPGKAPKLMIYEVSNRPSGVSNRFSGSKSGNTASLTISGLQAEDEADYYCSSYTSSSTVFGGGTKLTVL
B7: AB-009610 (antibody, V domains shown)
VH: QVQLVQSGAEVKKPGSSVKVSCKASGGTFSNYAISWVRQAPGQGLEWMGRIIPILGIANYAQKFQGRVTITADKSTSTAYMELSSLRSEDTAVYYCATTPYYYDSSGYYLDYWGQGTLVTVSS
VL: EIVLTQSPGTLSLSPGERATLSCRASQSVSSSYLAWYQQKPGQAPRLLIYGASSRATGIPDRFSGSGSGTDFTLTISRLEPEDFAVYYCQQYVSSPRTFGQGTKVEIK
B8: AB-009760 (antibody, V domains shown)
VH: EVQLVQSGAEVKKPGESLKISCKGSGYSFTSYWIGWVRQMPGKGLEWMGIIYPGDSDTRYSPSFQGQVTISADKSISTAYLQWSSLKASDTAMYYCARSRSSDYFDYWGQGTLVTVSS
VL: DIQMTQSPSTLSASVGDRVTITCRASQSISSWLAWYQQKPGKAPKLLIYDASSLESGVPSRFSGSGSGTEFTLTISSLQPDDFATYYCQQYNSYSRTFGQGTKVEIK
B9: AB-009346 (antibody, V domains shown)
VH: EVQLVESGGGVVRPGGSLRLSCAASGFTFDDYGMSWVRQAPGKGLEWVSGINWNGGSTGYADSVKGRFTISRDNAKNSLYLQMNSLRAEDTALYYCARWPLLGISGYYHYYMDVWGKGTTVTVSS
VL: QSALTQPRSVSGSPGQSVTISCTGTSSDVGGYNYVSWYQQHPGKAPKLMIYDVSKRPSGVPDRFSGSKSGNTASLTISGLQAEDEADYYCCSYAGSYTLLFGGGTKLIVL
B10: AB-009614 (antibody, V domains shown)
VH: QVQLVESGGGVVQPGRSLRLSCAASGFTFSSYGMHWVRQAPGKGLEWVAVISYDGSNKYYADSVKGRFTISRDNSKNTLYLQMNSLRAEDTAVYYCAKDQKYYDILTGYYRSTYYYYYYGMDVWGQGTTVTVSS
VL: not shown
B11: AB-009615 (antibody, V domains shown)
VH: QVQLVESGGGVVQPGRSLRLSCAASGFTFSSYGMHWVRQAPGKGLEWVAVIWYDGSNKYYADSVKGRFTISRDNSKNTLYLQMNSLRAEDTAVYYCAKVGSPYCSGGSCYSGYFDYWGQGTLVTVSS
VL: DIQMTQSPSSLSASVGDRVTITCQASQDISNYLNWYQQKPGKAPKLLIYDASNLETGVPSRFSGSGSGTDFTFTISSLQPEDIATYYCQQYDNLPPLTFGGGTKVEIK
B12: AB-009270 (antibody, V domains shown)
VH: QMQLVQSGPEVKKPGTSVKVSCKASGFTFTSSAMQWVRQARGQRLEWIGWIVVGSGNTNYAQKFQERVTITRDMSTSTAYMELSSLRSEDTAVYYCAVNYCSSTSCYDAFDIWGQGTMVTVSS
VL: not shown
B13: AB-010021 (antibody, V domains shown)
VH: B12 VH with M34V, V98A, N99V, S103G, T104G, Y107L
VL: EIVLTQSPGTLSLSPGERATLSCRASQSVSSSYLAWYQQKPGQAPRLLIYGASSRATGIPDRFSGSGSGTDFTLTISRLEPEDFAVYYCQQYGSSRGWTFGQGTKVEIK
notes: also called AB-0010021
B14: AB-010020 (antibody, V domains shown)
VH: B12 VH with M34V, V98A, N99P, Y100A, A109G
VL: not shown
B15: AB-009769 (antibody, V domains shown)
VH: EVQLVESGGGLVQPGGSLRLSCAASGFTFSSYWMSWVRQAPGKGLEWVANIKQDGSEKYYVDSVKGRFTISRDNAKNSLYLQMNSLRAEDTAVYYCARSPEVLWFGDPVLDNWFDPWGQGTLVTVSS
VL: SYELTQPPSVSVSPGQTARITCSGDALPKQYAYWYQQKPGQAPVLVIYKDSERPSGIPERFSGSSSGTTVTLTISGVQAEDEADYYCQSADSSGTYPVVFGGGTKLTVL
B16: AB-009734 (antibody, V domains shown)
VH: QVHLVQSGAEVKTPGASVRVSCKASGYTFTSHYMHWVRQAPGQGLEWMGLINPSGSGTAYPQHFQGRVTMTRDTSTTTDYMDLSSLRSEDTAMYFCARMERSGAFDLWGQGTMVTVSS
VL: EIVLTQSPGTLSLSPGERATLSCRASQTISSRYLAWYYQKPGQAPRLLIQGSSIRATGIPDRFSGSGSGTDFTLTISRLEPEDFAVYYCQHYGSSPPMYTFGQGTKLEIK

Changes are numbered by the printed parent chain.

The target in one test is SARS-CoV-2 spike receptor-binding domain (RBD) (SARS-CoV-2, UniProt P0DTC2 319-541).
Test: not given
One may read the Kd as a measure of binding affinity in units of concentration. Lower therefore signals tighter binding. What is called kon is a measure of how fast the partners come together. A high value points to fast association. The molecule B1 had a Kd of 9.8 nM and a kon of 108000 M⁻¹ s⁻¹.

A further test concerns the target SARS-CoV-2 "Alpha" UK B.1.1.7 full-length Spike protein on pseudovirus (SARS-CoV-2, UniProt P0DTC2 14-1273). Kind of test: cell-based or functional assay.
For the molecule B2, the “Pseudovirus Neturalization” value is above 50 µg/mL.
The same measure, in the same setting: as for B3, the figure is above 50 µg/mL; as for B4, 0.275 µg/mL.
Same read-out and setting: as for B5, the figure is 7.23 µg/mL.
As for B6, the “Pseudovirus Neturalization” value turned out to be 0.257 µg/mL.
The same measure, in the same setting: as for B7, the figure is 2.84 µg/mL; as for B8, 17.7 µg/mL; as for B9, 0.114 µg/mL.
On to B10, for which the “Pseudovirus Neturalization” value is above 50 µg/mL.
On the same count and under the same terms, as for B11, the figure is above 50 µg/mL; as for B12, 0.117 µg/mL; as for B13, 2.69 µg/mL.
Same read-out and setting: the result for B14 reads 0.013 µg/mL; that for B15, above 50 µg/mL.
On to B16, for which the “Pseudovirus Neturalization” value is above 50 µg/mL.

In a further test the target is SARS-CoV-2 "Beta" SA B.1.351 full-length Spike protein on pseudovirus (SARS-CoV-2, UniProt P0DTC2 14-1273). Kind of test: cell-based or functional assay.
Regarding B2, the “Pseudovirus Neturalization” value was above 50 µg/mL.
In the case of B3, the “Pseudovirus Neturalization” value was above 50 µg/mL.
The same measure, in the same setting: the result for B4 reads above 50 µg/mL; that for B5, above 50 µg/mL.
On the same count and under the same terms, the result for B6 reads 0.563 µg/mL.
The same measure, in the same setting: as for B7, the figure is above 50 µg/mL; as for B8, above 50 µg/mL.
As to B9, the “Pseudovirus Neturalization” value was above 50 µg/mL.
On to B10, for which the “Pseudovirus Neturalization” value was above 50 µg/mL.
Same read-out and setting: as for B11, the figure is above 50 µg/mL; as for B12, 0.169 µg/mL.
The same measure, in the same setting: the result for B13 reads 8.27 µg/mL; that for B14, 0.018 µg/mL.
Still for that read-out and setting: the result for B15 reads above 50 µg/mL.
In the case of B16, the “Pseudovirus Neturalization” value was above 50 µg/mL.

The target in a further test is SARS-CoV-2 "Gamma" Brazil P.1.B.1.1.28 full-length Spike protein on pseudovirus (SARS-CoV-2, UniProt P0DTC2 14-1273). The experiment in a line: cell-based or functional assay.
B2: the “Pseudovirus Neturalization” value is above 50 µg/mL.
The same measure, in the same setting: as for B3, the figure is above 50 µg/mL.
Same read-out and setting: the result for B4 reads above 50 µg/mL; that for B5, above 50 µg/mL.
As for B6, the “Pseudovirus Neturalization” value stood at 0.327 µg/mL.
With B7, the “Pseudovirus Neturalization” value was above 50 µg/mL.
The same measure, in the same setting: as for B8, the figure is 19.2 µg/mL; as for B9, above 50 µg/mL; as for B10, above 50 µg/mL.
With B11, the “Pseudovirus Neturalization” value was above 50 µg/mL.
As to B12, the “Pseudovirus Neturalization” value came to 0.158 µg/mL.
Consider B13, for which the “Pseudovirus Neturalization” value came to 5.39 µg/mL.
The same measure, in the same setting: as for B14, the figure is 0.0114 µg/mL.
On the same count and under the same terms, as for B15, the figure is above 50 µg/mL; as for B16, 40.6 µg/mL.

Another test concerns the target SARS-CoV-2 "Delta" B.1.617.2 full-length Spike protein on pseudovirus (SARS-CoV-2, UniProt P0DTC2 14-1273). Kind of test: cell-based or functional assay.
For B2, the “Pseudovirus Neturalization” value was above 50 µg/mL.
On the same count and under the same terms, the result for B3 reads 0.032 µg/mL.
The same measure, in the same setting: as for B4, the figure is 0.012 µg/mL.
On the same count and under the same terms, the result for B5 reads 0.101 µg/mL; that for B6, 0.519 µg/mL; that for B7, above 50 µg/mL.
Take B8: the “Pseudovirus Neturalization” value was above 50 µg/mL.
The same measure, in the same setting: as for B9, the figure is above 50 µg/mL; as for B10, 31.3 µg/mL.
In the case of B11, the “Pseudovirus Neturalization” value was above 50 µg/mL.
Still for that read-out and setting: as for B12, the figure is 0.03 µg/mL.
Still for that read-out and setting: the result for B13 reads 0.574 µg/mL; that for B14, 0.003 µg/mL; that for B15, above 50 µg/mL.
On the same count and under the same terms, as for B16, the figure is above 50 µg/mL.

The target in a further test is SARS-CoV-2 "Delta-plus" B.1.617.2.1 full-length Spike protein on pseudovirus (SARS-CoV-2, UniProt P0DTC2 14-1273). Kind of test: cell-based or functional assay.
Turning to B2, the “Pseudovirus Neturalization” value is above 50 µg/mL.
Still for that read-out and setting: as for B3, the figure is 2.29 µg/mL; as for B4, above 50 µg/mL.
Still for that read-out and setting: the result for B5 reads above 50 µg/mL; that for B6, 0.809 µg/mL; that for B7, above 50 µg/mL.
As to B8, the “Pseudovirus Neturalization” value worked out at 46.2 µg/mL.
With B9, the “Pseudovirus Neturalization” value is above 50 µg/mL.
The same measure, in the same setting: the result for B10 reads above 50 µg/mL; that for B11, above 50 µg/mL.
Same read-out and setting: as for B12, the figure is 0.012 µg/mL; as for B13, 0.078 µg/mL.
The same measure, in the same setting: as for B14, the figure is 0.001 µg/mL.
As to B15, the “Pseudovirus Neturalization” value is above 50 µg/mL.
Consider B16, for which the “Pseudovirus Neturalization” value is above 50 µg/mL.

For another test, the target named is SARS-CoV-2 "Epsilon" B.1.427/9 full-length Spike protein on pseudovirus (SARS-CoV-2, UniProt P0DTC2 14-1273). Kind of test: cell-based or functional assay.
Take B2: the “Pseudovirus Neturalization” value is above 50 µg/mL.
Same read-out and setting: as for B3, the figure is 0.041 µg/mL.
Still for that read-out and setting: the result for B4 reads 0.028 µg/mL; that for B5, 1.16 µg/mL; that for B6, 0.974 µg/mL.
Same read-out and setting: the result for B7 reads above 50 µg/mL.
For B8, the “Pseudovirus Neturalization” value amounted to 14.1 µg/mL.
For the molecule B9, the “Pseudovirus Neturalization” value was 33.6 µg/mL.
On the same count and under the same terms, the result for B10 reads above 50 µg/mL; that for B11, 38.4 µg/mL; that for B12, 0.032 µg/mL.
The same measure, in the same setting: the result for B13 reads 0.629 µg/mL; that for B14, 0.003 µg/mL.
On the same count and under the same terms, the result for B15 reads above 50 µg/mL.
On to B16, for which the “Pseudovirus Neturalization” value is above 50 µg/mL.
